According to the supplement of paper PMC9112550, “Optimization of the antimicrobial peptide Bac7 by deep mutational scanning” (BMC Biology, 2022):

Tested on: Escherichia coli TOP10
Experiment: shrunken log2 fold change of peptide-encoding DNA abundance (4.5 h post-induction vs induction); higher = less antimicrobial activity (less host growth inhibition)
Settings: time post-induction: 4.5 h; library: site-saturation at positions 5, 18, 19, 20
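Also: peptides expressed intracellularly from a pBAD plasmid library in pooled LB shake-flask culture, induced with 0.3% L-arabinose, DNA abundance read by NGS, three biological replicates, DESeq2 with apeglm shrinkage.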

RRIRHRPPRLPRPRPRPLVRPRP
shrunken log2 fold change: -0.103

RRIRHRPPRLPRPRPRPLWLPRP
shrunken log2 fold change: 0.0573

RRIRHRPPRLPRPRPRPLYKPRP
shrunken log2 fold change: -0.272

RRIRHRPPRLPRPRPRPMAPPRP
shrunken log2 fold change: 0.0599

RRIRHRPPRLPRPRPRPMCAPRP
shrunken log2 fold change: -0.446

RRIRHRPPRLPRPRPRPMCWPRP
shrunken log2 fold change: -0.178

RRIRHRPPRLPRPRPRPMDPPRP
shrunken log2 fold change: -0.385

RRIRHRPPRLPRPRPRPMFHPRP
shrunken log2 fold change: -0.509

RRIRHRPPRLPRPRPRPMHNPRP
shrunken log2 fold change: 0.708

RRIRHRPPRLPRPRPRPMIQPRP
shrunken log2 fold change: -0.0673

RRIRHRPPRLPRPRPRPMNDPRP
shrunken log2 fold change: -0.108

RRIRHRPPRLPRPRPRPMNHPRP
shrunken log2 fold change: -0.738

RRIRHRPPRLPRPRPRPMNWPRP
shrunken log2 fold change: -0.209

RRIRHRPPRLPRPRPRPMPIPRP
shrunken log2 fold change: 0.113

RRIRHRPPRLPRPRPRPMQFPRP
shrunken log2 fold change: 0.00869

RRIRHRPPRLPRPRPRPMQPPRP
shrunken log2 fold change: 0.172

RRIRHRPPRLPRPRPRPMQRPRP
shrunken log2 fold change: 0.138

RRIRHRPPRLPRPRPRPMQWPRP
shrunken log2 fold change: 0.00884

RRIRHRPPRLPRPRPRPMRDPRP
shrunken log2 fold change: 0.684

RRIRHRPPRLPRPRPRPMSGPRP
shrunken log2 fold change: -0.0285

RRIRHRPPRLPRPRPRPMSSPRP
shrunken log2 fold change: -0.225

RRIRHRPPRLPRPRPRPMSYPRP
shrunken log2 fold change: -0.0194

RRIRHRPPRLPRPRPRPMTMPRP
shrunken log2 fold change: -0.257

RRIRHRPPRLPRPRPRPMVCPRP
shrunken log2 fold change: -0.0703

RRIRHRPPRLPRPRPRPMYIPRP
shrunken log2 fold change: -0.0294

RRIRHRPPRLPRPRPRPNAEPRP
shrunken log2 fold change: -0.0088

RRIRHRPPRLPRPRPRPNCQPRP
shrunken log2 fold change: 0.358

RRIRHRPPRLPRPRPRPNFDPRP
shrunken log2 fold change: -0.0783

RRIRHRPPRLPRPRPRPNGAPRP
shrunken log2 fold change: -0.18

RRIRHRPPRLPRPRPRPNGRPRP
shrunken log2 fold change: -9.3e-05

RRIRHRPPRLPRPRPRPNHGPRP
shrunken log2 fold change: 0.0424

RRIRHRPPRLPRPRPRPNHQPRP
shrunken log2 fold change: -1.24

RRIRHRPPRLPRPRPRPNKFPRP
shrunken log2 fold change: -0.284

RRIRHRPPRLPRPRPRPNLFPRP
shrunken log2 fold change: -0.0861

RRIRHRPPRLPRPRPRPNPKPRP
shrunken log2 fold change: -0.0127

RRIRHRPPRLPRPRPRPNPRPRP
shrunken log2 fold change: -0.0621

RRIRHRPPRLPRPRPRPNQFPRP
shrunken log2 fold change: -0.789

RRIRHRPPRLPRPRPRPNQKPRP
shrunken log2 fold change: -0.0319

RRIRHRPPRLPRPRPRPNQWPRP
shrunken log2 fold change: -0.227

RRIRHRPPRLPRPRPRPNRPPRP
shrunken log2 fold change: -0.022

RRIRHRPPRLPRPRPRPNSAPRP
shrunken log2 fold change: -0.0296

RRIRHRPPRLPRPRPRPNTTPRP
shrunken log2 fold change: -0.019

RRIRHRPPRLPRPRPRPNVIPRP
shrunken log2 fold change: 0.0378

RRIRHRPPRLPRPRPRPNVQPRP
shrunken log2 fold change: -1.87

RRIRHRPPRLPRPRPRPNVWPRP
shrunken log2 fold change: 0.0763

RRIRHRPPRLPRPRPRPNWAPRP
shrunken log2 fold change: -0.0735

RRIRHRPPRLPRPRPRPPAYPRP
shrunken log2 fold change: 0.181

RRIRHRPPRLPRPRPRPPCQPRP
shrunken log2 fold change: 0.0503

RRIRHRPPRLPRPRPRPPEPPRP
shrunken log2 fold change: 0.113

RRIRHRPPRLPRPRPRPPEVPRP
shrunken log2 fold change: 0.0634

RRIRHRPPRLPRPRPRPPFSPRP
shrunken log2 fold change: -0.166

RRIRHRPPRLPRPRPRPPFTPRP
shrunken log2 fold change: -0.176

RRIRHRPPRLPRPRPRPPHGPRP
shrunken log2 fold change: 0.389

RRIRHRPPRLPRPRPRPPIIPRP
shrunken log2 fold change: -0.183

RRIRHRPPRLPRPRPRPPMTPRP
shrunken log2 fold change: -0.175

RRIRHRPPRLPRPRPRPPNHPRP
shrunken log2 fold change: -0.442

RRIRHRPPRLPRPRPRPPPKPRP
shrunken log2 fold change: 0.906

RRIRHRPPRLPRPRPRPPPQPRP
shrunken log2 fold change: 0.844

RRIRHRPPRLPRPRPRPPPSPRP
shrunken log2 fold change: 0.87

RRIRHRPPRLPRPRPRPPQTPRP
shrunken log2 fold change: -0.00347

RRIRHRPPRLPRPRPRPPRGPRP
shrunken log2 fold change: 0.564

RRIRHRPPRLPRPRPRPPRIPRP
shrunken log2 fold change: 0.0175

RRIRHRPPRLPRPRPRPPSLPRP
shrunken log2 fold change: -0.0977

RRIRHRPPRLPRPRPRPPSTPRP
shrunken log2 fold change: -0.0909

RRIRHRPPRLPRPRPRPPTDPRP
shrunken log2 fold change: -0.254

RRIRHRPPRLPRPRPRPPTIPRP
shrunken log2 fold change: 0.215

RRIRHRPPRLPRPRPRPPTRPRP
shrunken log2 fold change: 0.429

RRIRHRPPRLPRPRPRPPWIPRP
shrunken log2 fold change: 0.0139

RRIRHRPPRLPRPRPRPPWMPRP
shrunken log2 fold change: 0.197

RRIRHRPPRLPRPRPRPPWPPRP
shrunken log2 fold change: 0.504

RRIRHRPPRLPRPRPRPPYLPRP
shrunken log2 fold change: -0.321

RRIRHRPPRLPRPRPRPPYRPRP
shrunken log2 fold change: -0.399

RRIRHRPPRLPRPRPRPQAKPRP
shrunken log2 fold change: -0.016

RRIRHRPPRLPRPRPRPQANPRP
shrunken log2 fold change: 0.0174

RRIRHRPPRLPRPRPRPQCRPRP
shrunken log2 fold change: -0.0351

RRIRHRPPRLPRPRPRPQCWPRP
shrunken log2 fold change: -0.112

RRIRHRPPRLPRPRPRPQDMPRP
shrunken log2 fold change: -0.129

RRIRHRPPRLPRPRPRPQEPPRP
shrunken log2 fold change: -0.136

RRIRHRPPRLPRPRPRPQFEPRP
shrunken log2 fold change: -0.0276

RRIRHRPPRLPRPRPRPQFPPRP
shrunken log2 fold change: -0.157

RRIRHRPPRLPRPRPRPQGGPRP
shrunken log2 fold change: -0.0982

RRIRHRPPRLPRPRPRPQHMPRP
shrunken log2 fold change: -1.2

RRIRHRPPRLPRPRPRPQHYPRP
shrunken log2 fold change: -0.483

RRIRHRPPRLPRPRPRPQLSPRP
shrunken log2 fold change: -0.000101

RRIRHRPPRLPRPRPRPQQFPRP
shrunken log2 fold change: -0.217

RRIRHRPPRLPRPRPRPQSTPRP
shrunken log2 fold change: -0.395

RRIRHRPPRLPRPRPRPQTLPRP
shrunken log2 fold change: -0.313

RRIRHRPPRLPRPRPRPQVSPRP
shrunken log2 fold change: -0.00697

RRIRHRPPRLPRPRPRPQYEPRP
shrunken log2 fold change: -0.0461

RRIRHRPPRLPRPRPRPRAFPRP
shrunken log2 fold change: -0.146

RRIRHRPPRLPRPRPRPRAMPRP
shrunken log2 fold change: 0.592

RRIRHRPPRLPRPRPRPREFPRP
shrunken log2 fold change: 0.0275

RRIRHRPPRLPRPRPRPRFAPRP
shrunken log2 fold change: 0.0665

RRIRHRPPRLPRPRPRPRFLPRP
shrunken log2 fold change: 0.0768

RRIRHRPPRLPRPRPRPRFVPRP
shrunken log2 fold change: -0.0283

RRIRHRPPRLPRPRPRPRGIPRP
shrunken log2 fold change: -0.0565

RRIRHRPPRLPRPRPRPRILPRP
shrunken log2 fold change: 0.091

RRIRHRPPRLPRPRPRPRIRPRP
shrunken log2 fold change: -0.00948

RRIRHRPPRLPRPRPRPRKKPRP
shrunken log2 fold change: -0.0239

RRIRHRPPRLPRPRPRPRLNPRP
shrunken log2 fold change: -0.249

RRIRHRPPRLPRPRPRPRLSPRP
shrunken log2 fold change: -0.0962

RRIRHRPPRLPRPRPRPRMDPRP
shrunken log2 fold change: 0.0986

RRIRHRPPRLPRPRPRPRMFPRP
shrunken log2 fold change: -0.219

RRIRHRPPRLPRPRPRPRNAPRP
shrunken log2 fold change: 0.184

RRIRHRPPRLPRPRPRPRNCPRP
shrunken log2 fold change: -0.112

RRIRHRPPRLPRPRPRPRNGPRP
shrunken log2 fold change: -0.0288

RRIRHRPPRLPRPRPRPRSTPRP
shrunken log2 fold change: -0.00721

RRIRHRPPRLPRPRPRPRTFPRP
shrunken log2 fold change: 0.147

RRIRHRPPRLPRPRPRPRTGPRP
shrunken log2 fold change: -0.111

RRIRHRPPRLPRPRPRPRTPPRP
shrunken log2 fold change: 0.314

RRIRHRPPRLPRPRPRPRVEPRP
shrunken log2 fold change: 0.0973

RRIRHRPPRLPRPRPRPRVWPRP
shrunken log2 fold change: 0.534

RRIRHRPPRLPRPRPRPRWHPRP
shrunken log2 fold change: 0.102

RRIRHRPPRLPRPRPRPSAAPRP
shrunken log2 fold change: 0.334

RRIRHRPPRLPRPRPRPSAEPRP
shrunken log2 fold change: 0.217

RRIRHRPPRLPRPRPRPSAKPRP
shrunken log2 fold change: -0.324

RRIRHRPPRLPRPRPRPSCKPRP
shrunken log2 fold change: -0.609

RRIRHRPPRLPRPRPRPSDIPRP
shrunken log2 fold change: -0.978

RRIRHRPPRLPRPRPRPSDVPRP
shrunken log2 fold change: -0.042

RRIRHRPPRLPRPRPRPSFQPRP
shrunken log2 fold change: -0.652

RRIRHRPPRLPRPRPRPSFSPRP
shrunken log2 fold change: -0.483

RRIRHRPPRLPRPRPRPSGHPRP
shrunken log2 fold change: -0.172

RRIRHRPPRLPRPRPRPSIMPRP
shrunken log2 fold change: -0.423

RRIRHRPPRLPRPRPRPSKMPRP
shrunken log2 fold change: -0.858

RRIRHRPPRLPRPRPRPSLQPRP
shrunken log2 fold change: -0.0974

RRIRHRPPRLPRPRPRPSLWPRP
shrunken log2 fold change: 0.257

RRIRHRPPRLPRPRPRPSPDPRP
shrunken log2 fold change: -0.293

RRIRHRPPRLPRPRPRPSPRPRP
shrunken log2 fold change: 0.0803

RRIRHRPPRLPRPRPRPSPSPRP
shrunken log2 fold change: 0.00467

RRIRHRPPRLPRPRPRPSQGPRP
shrunken log2 fold change: 0.0306

RRIRHRPPRLPRPRPRPSRPPRP
shrunken log2 fold change: 0.323

RRIRHRPPRLPRPRPRPSSGPRP
shrunken log2 fold change: -0.427

RRIRHRPPRLPRPRPRPSSNPRP
shrunken log2 fold change: -0.399

RRIRHRPPRLPRPRPRPSTDPRP
shrunken log2 fold change: -0.406

RRIRHRPPRLPRPRPRPSTEPRP
shrunken log2 fold change: -0.168

RRIRHRPPRLPRPRPRPSVGPRP
shrunken log2 fold change: 0.319

RRIRHRPPRLPRPRPRPSVSPRP
shrunken log2 fold change: -0.0167

RRIRHRPPRLPRPRPRPSYKPRP
shrunken log2 fold change: -0.0553

RRIRHRPPRLPRPRPRPTAAPRP
shrunken log2 fold change: 0.518

RRIRHRPPRLPRPRPRPTAEPRP
shrunken log2 fold change: 0.056

RRIRHRPPRLPRPRPRPTAHPRP
shrunken log2 fold change: -0.173

RRIRHRPPRLPRPRPRPTDCPRP
shrunken log2 fold change: 0.038

RRIRHRPPRLPRPRPRPTEIPRP
shrunken log2 fold change: 0.0223

RRIRHRPPRLPRPRPRPTFSPRP
shrunken log2 fold change: -0.22

RRIRHRPPRLPRPRPRPTISPRP
shrunken log2 fold change: -0.495

RRIRHRPPRLPRPRPRPTKMPRP
shrunken log2 fold change: 0.0724

RRIRHRPPRLPRPRPRPTLSPRP
shrunken log2 fold change: -0.17

RRIRHRPPRLPRPRPRPTMMPRP
shrunken log2 fold change: -0.503

RRIRHRPPRLPRPRPRPTMWPRP
shrunken log2 fold change: 0.22

RRIRHRPPRLPRPRPRPTNNPRP
shrunken log2 fold change: -0.467
